This passage reports Expression results from patent publication US20230226096A1 (Orna Therapeutics, Inc., priority 2020, published 2023).

The data set has as its system HEK293 cells. In kind it is cell-based, human. The conditions noted are these: luminescence from secreted Gluc in supernatant 24 hours after transfection of HEK293 cells; circular RNA encoding Gluc with the named IRES (UTR truncated to 675 nt).

B1: Hepatovirus D (nucleic acid)
DNA: CTTTGGATGCCCATAGTGCGGGGGTATAAATACCGCACTCCCTTTAGCTGTTCCGAGGGTATCGGAACCTATATGTTTGTTTTCTGTCTGTCTGTCAGCTTTATGTGTGCTCGTCCCCTTTAGGGCACTCATTTCAGCTTGCTTTCATTCTTTTCTTCCCCGGTTCTCACCTTACCGGAGGCACTGGCCGTTGCGCCCGGCGGGGTCAACCTAGTGATTAGCACTAGGCTGTAGGTGTCTAAAGTGGTGACATTAAGACTTGGTAACTGATTTCAGCACTGTTAACTGATGTTGGGGATGACTTGATTGATCTTCTGGAAGGGGTAGGCTACGGGTGAAACCCCTTATCTTAATACCACTATGTAGAGATAGATTCAGTAGGTTAAGGGCAGTGGATAAGGTTGAGTTCATTTTGGACAATAAACCTTCAACACTGGTGGACCCAATCTCACTGACCAGATGCTTTCTTGACTGATCCTTCAGAGGGGTGATTCTTCTGAATAGGTTGCCTTGACACTGATGCCTGAGACCCATTGGGTCGGGCCTTAAATCATGGAACTCCACTGGACTTTCATGGCCTAGCTTCTGCCTTAGACAGACTCTGGGGCCCCACGACCCTCTGGGCCCTTCGGGGTACTCAGGGGCATTTAGGTTTTTCCACAATTAAAAGAGTTA
modifications: Hepatovirus D
Take B1: the Expression is recorded as 1.47E+06.

B2: Hepatovirus H2 (nucleic acid, listed as Hepatovirus sp.)
DNA: GTCATGTTTCTCTTTAAGAACACTCAATTTTGGCCATAAGTGAGACTCTTGTCGAACCTTTCATGTCAGGACCATGTTAGGGCCATTATCCTTTTCCCTGGGGCATTCTTCTTGCCCCTGTTTCATCTTTCTATCATCTTTCTTCCGGGCTCTCACAATGCCAATGGAGCGACCGATGCGCACGTCGGGGTTAACCCATGGATTAGCCATGGGCTGTAGCTGCTAAAAGTTGTGACTCCTGAAGCATACTATCAATGGTAGTAGATGTAACTGAAACACTGAAGCTTCTCTGATCTTGAAAGAAGGGTAGGCTACGGGTGAAACCCTTCAGGTTAATACTCATATTGAGAGATACCTTTGGTAGGTTAACGTTGGCGGATAATGTTGAGTTTAACGACAATAAACATTCAACGCCTGTGGGCGAACCTCACCAATTTCATGCTTTGAAGTGAATGTGCGTAGGGTCTCTATCGGAGATGCTATGTGGATGGTGCCCTCCCTGGAAACAGGTTGTAGGGGTACTCAGGTGCACTTAGGTTTCCACATTTTAAAGATTTTTC
Molecule B2 yielded an Expression of 1.08E+05.

B3: Hepatovirus G1 (nucleic acid, listed as Hepatovirus sp.)
DNA: GCAAGGGGTGGTTTTAACCTTGCACGCGTTTACCGTGCGTTAACGGTTTTCCATGTTTGTATGTCTTGTTTGTATTATGTGTTTTGTAAATATTAATTCCTGCAGGTTCAGGGTTCTTTAATCATGTTGGGCTGTACCCACACTCAACTTTTGGCCATAAGTGAGTTTCTTAACGAACCTTTTAACACAGGATGTTATTAGGGCCCAATATTTTCCCTGAGGCCTTCTTTGGCCTCTATTTTTTCCCCTTTTCTATCTCCTTGTATTCCGGGCTCACGTGATGCCAATGGACTGACCCATGCGCCCGTGGGGGTTAACTACTGGAGTAGCCAGTAGCTGTAGGTGCTAAAAGTCACGTACGTGTAAGACTGGACGAGACCTCTCAGCTATAACTGAAAGTAGTAAGTATGTCTGAACTTCTTGAAGGGGTAGGCTACGGGTGAAACCCCTTAGGTTAATACTCATATTGAGAGATACCTCTGATAGGTGAAGGTTTCCGGTAGAGGTGAGTTTAACGACAAAGCCTCTCAACGGATGTGGGCCCACCTCATCAGCAAGATGCTTTCATACCCAATACCGTAGGGGCTGGGTTGTTGAGTTCAGTCCCAAGCGTCCCTCCCGCAAGGTTGTAGGGGTACTCAGGGGCATTTAGGTTTCCACAATTAAACAAATACA
The molecule B3 yielded an Expression of 1.41E+05.
